Laboratory results from patent publication US20230340152A1 (published 2023).
Numbering of substitutions follows the chain as printed. Names may count otherwise.

T1: Human CD73 ECD (human, UniProt P21589 27-549)
T1 sequence: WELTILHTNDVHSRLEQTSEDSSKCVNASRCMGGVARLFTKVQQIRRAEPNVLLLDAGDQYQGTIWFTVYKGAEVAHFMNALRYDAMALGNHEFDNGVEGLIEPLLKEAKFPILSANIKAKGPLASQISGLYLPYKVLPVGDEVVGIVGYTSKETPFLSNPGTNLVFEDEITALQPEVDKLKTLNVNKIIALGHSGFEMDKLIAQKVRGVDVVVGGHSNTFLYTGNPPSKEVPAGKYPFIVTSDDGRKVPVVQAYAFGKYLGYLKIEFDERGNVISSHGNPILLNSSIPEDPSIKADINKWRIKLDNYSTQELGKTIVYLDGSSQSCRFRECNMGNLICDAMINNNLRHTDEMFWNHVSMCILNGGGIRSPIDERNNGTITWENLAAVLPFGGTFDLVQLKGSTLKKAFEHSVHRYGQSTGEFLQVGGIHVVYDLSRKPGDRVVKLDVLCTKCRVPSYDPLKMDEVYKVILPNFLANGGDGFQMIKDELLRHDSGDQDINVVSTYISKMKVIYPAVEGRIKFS

T2: Human CD73 on cells (MDA-MB-231, Jurkat CD73 knock-in, NCI-H322) (human, UniProt P21589 27-549)
T2 sequence: T1 sequence

T3: Murine CD73 ECD (murine, UniProt Q61503 29-551, limits assumed)
T3 construct: extracellular domain; In-house recombinant ECD; also called murine CD73 extracellular domain; muCD73
T3 sequence (looked up): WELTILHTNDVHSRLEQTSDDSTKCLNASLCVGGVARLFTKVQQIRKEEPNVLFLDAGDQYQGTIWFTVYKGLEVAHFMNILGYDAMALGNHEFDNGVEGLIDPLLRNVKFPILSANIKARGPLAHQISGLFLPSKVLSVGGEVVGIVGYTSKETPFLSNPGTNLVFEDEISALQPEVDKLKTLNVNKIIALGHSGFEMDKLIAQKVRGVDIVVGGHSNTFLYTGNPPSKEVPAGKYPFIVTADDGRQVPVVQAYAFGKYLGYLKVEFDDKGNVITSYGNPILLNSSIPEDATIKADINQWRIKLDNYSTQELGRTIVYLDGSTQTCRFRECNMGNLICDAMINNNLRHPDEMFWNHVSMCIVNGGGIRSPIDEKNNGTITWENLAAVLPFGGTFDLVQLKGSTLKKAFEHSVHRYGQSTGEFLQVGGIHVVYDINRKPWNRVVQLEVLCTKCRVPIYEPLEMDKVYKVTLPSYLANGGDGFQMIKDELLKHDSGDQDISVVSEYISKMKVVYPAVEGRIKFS

T4: Cynomolgus CD73 ECD (cynomolgus, UniProt A0A2K5V5U7 27-549)
T4 construct: extracellular domain; also called cyno CD73
T4 sequence: T1 sequence with M199T, T350A, V466I

T5: Murine CD73 on cells (4T1, Jurkat mCD73 knock-in) (murine, UniProt Q61503 29-551)
T5 construct: whole, on cells; also called 4T1 (murine)
T5 sequence (looked up): T3 sequence (looked up)

T6: Cynomolgus CD73 on MK-1 cells (cynomolgus, UniProt A0A2K5V5U7 27-549)
T6 construct: whole, on cells; also called MK-1 (cyno)
T6 sequence: T1 sequence with M199T, T350A, V466I

B1: CD730008 (antibody, IgG1, V domains shown)
VH: EVQLLETGGGLVQPGGSLRLSCAASGFTFSSYAMSWVRQAPGKGLEWVSAISGSGGSTYYADSVKGRFTISRDNSKNTLYLQMNSLRAEDTAVYYCARGNYGNLDHWGKGTLVTVSS
VL: QSVLTQPPSVSVSPGQTASITCSGDKVGDKYASWYQQKPGQSPVLVIYQDRKRPSGIPERFSGSNSGNTATLTISGTQPMDEADYYCQAWDSSHWVFGGGTKLTVL
notes: IgG1-TM format; also called CD730008 antibody
B2: CD730010 GL9 VH S35H Fab (Fab, name in Kabat numbering, V domains shown)
VH: B1 VH with T7S, S35H, G99L, N100G, G102S, N103T, L104I, H106Y, K109R
VL: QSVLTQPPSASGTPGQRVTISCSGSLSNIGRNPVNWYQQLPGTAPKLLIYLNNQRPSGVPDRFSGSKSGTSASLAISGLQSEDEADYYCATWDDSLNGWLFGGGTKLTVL
notes: Bacterial Fab, normalized supernatant
B3: CD730010 GL9 VH A50L Fab (Fab, name in Kabat numbering, V domains shown)
VH: B1 VH with T7S, A50L, G99L, N100G, G102S, N103T, L104I, H106Y, K109R
VL: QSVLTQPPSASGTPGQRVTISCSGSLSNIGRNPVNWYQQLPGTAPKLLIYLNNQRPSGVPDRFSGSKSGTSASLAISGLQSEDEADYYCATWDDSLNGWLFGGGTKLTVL
notes: as for B2
B4: CD730010 GL9 VH S56R Fab (Fab, name in Kabat numbering, V domains shown)
VH: B1 VH with T7S, S57R, G99L, N100G, G102S, N103T, L104I, H106Y, K109R
VL: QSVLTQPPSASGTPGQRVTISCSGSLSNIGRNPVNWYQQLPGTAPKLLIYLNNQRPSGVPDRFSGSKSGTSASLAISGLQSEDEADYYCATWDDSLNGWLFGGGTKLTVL
notes: as for B2
B5: CD730010 GL9 VH G54N Fab (Fab, name in Kabat numbering, V domains shown)
VH: B1 VH with T7S, G55N, G99L, N100G, G102S, N103T, L104I, H106Y, K109R
VL: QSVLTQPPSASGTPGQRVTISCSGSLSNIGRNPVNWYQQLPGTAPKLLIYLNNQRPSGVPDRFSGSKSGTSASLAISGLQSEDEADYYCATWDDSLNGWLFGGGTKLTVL
notes: as for B2
B6: CD730010 GL9 VH G54W Fab (Fab, name in Kabat numbering, V domains shown)
VH: B1 VH with T7S, G55W, G99L, N100G, G102S, N103T, L104I, H106Y, K109R
VL: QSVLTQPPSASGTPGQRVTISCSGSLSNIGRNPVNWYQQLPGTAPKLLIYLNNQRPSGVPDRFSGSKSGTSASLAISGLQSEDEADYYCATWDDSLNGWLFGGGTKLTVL
notes: as for B2
B7: C1 (IgG1-TM) (antibody, V domains shown)
VH: B1 VH with T7S, M34Y, G99L, N100G, G102S, N103T, L104I, H106K, K109R
VL: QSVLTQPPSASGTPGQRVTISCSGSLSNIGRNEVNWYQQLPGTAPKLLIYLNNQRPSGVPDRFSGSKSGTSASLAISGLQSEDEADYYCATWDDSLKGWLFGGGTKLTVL
notes: IgG1-TM format; also called clone 10 C1
B8: CD730010 GL9 VH S52W Fab (Fab, name in Kabat numbering, V domains shown)
VH: B1 VH with T7S, S52W, G99L, N100G, G102S, N103T, L104I, H106Y, K109R
VL: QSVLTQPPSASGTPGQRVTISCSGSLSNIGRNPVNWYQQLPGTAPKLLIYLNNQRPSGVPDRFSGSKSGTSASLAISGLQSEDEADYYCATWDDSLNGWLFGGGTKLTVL
notes: as for B2
B9: CD730010 GL9 VH M34Y Fab (Fab, name in Kabat numbering, V domains shown)
VH: B1 VH with T7S, M34Y, G99L, N100G, G102S, N103T, L104I, H106Y, K109R
VL: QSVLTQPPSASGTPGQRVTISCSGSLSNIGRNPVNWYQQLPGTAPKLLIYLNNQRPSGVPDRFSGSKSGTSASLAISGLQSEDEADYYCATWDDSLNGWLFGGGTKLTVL
notes: as for B2
B10: CD730010 GL9 VH M34I Fab (Fab, name in Kabat numbering, V domains shown)
VH: B1 VH with T7S, M34I, G99L, N100G, G102S, N103T, L104I, H106Y, K109R
VL: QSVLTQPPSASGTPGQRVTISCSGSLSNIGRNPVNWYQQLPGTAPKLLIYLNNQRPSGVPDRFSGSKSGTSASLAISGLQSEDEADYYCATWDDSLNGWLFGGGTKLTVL
notes: as for B2
B11: CD730021 (antibody, V domains shown)
VH: QVQLQESGPGLVRPSETLSLTCTVSGGSISSSSYYWAWVRQSPGKGLEWIGNIYYRGSTYYNPSLKSRVTMSVDMSKHQFSLKLSSLNAADTAVYYCASLYSGTYVFDYWGRGTLVTVSS
VL: QSVLTQPPSASGTPGQRVTISCSGSRPNIGGNTVNWYQQLPGAAPKLLIYSNSQRPSGVPDRFSGSKYGTSASLAISGLQSDDEADYYCGTWDDSLNGPVFGRGTKLTVL
notes: IgG1-TM format; also called CD730021 antibody
B12: CD730042 (antibody, V domains shown)
VH: GVQLVQSGGGLVQPGGSLRLSCAASGFTFSSYGMHWVRQAPGKGLEWVAVISYDGSIKYYADSVKGRFTISRDDSKNALYLQMNSLRAEDTAVYYCSTLSGSYGYFDYWGRGTLVTVSS
VL: QSVLTQPASVSGSPGQSITISCAGTSSDVGGYNYVSWYQQHPGKAPKLMIYEGSKRPSGVSNRFSGSKSGNTASLTISGLQAEDEADYYCSSYTTRSTRVFGGGTKLTVL
notes: IgG1-TM format; also called CD730042 antibody
B13: CD730011 (antibody, V domains shown)
VH: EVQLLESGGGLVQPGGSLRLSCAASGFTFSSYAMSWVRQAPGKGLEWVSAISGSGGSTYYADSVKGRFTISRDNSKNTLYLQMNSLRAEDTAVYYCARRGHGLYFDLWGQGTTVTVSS
VL: NFMLTQPHSVSESPGKTVTISCTRSSGSIASKYVQWYQQRPGSSPMAVIYKDNQRSSGVPDRFSGSIDSSSNSASLTISGLKPEDEADYYCQSYDASNYYVFGTGTKVTVL
notes: IgG1-TM format; also called CD730011 antibody; CD7300011
B14: CD730047 (antibody, V domains shown)
VH: EVQLVQSGGGVVQPGRSLRLSCAASGFTFSSYGMHWVRQAPGKGLEWVAVISYDGSIKYYADSVKGRFAISRDNAKNTLYLQMNSLRREDTAMYYCASGLTGVAGALGVWGRGTLVTVSS
VL: QSVLTQPPSASGAPGQRVTISCSGSSSNIGSNTVNWYQRLPGAAPQLLIYNNDQRPSGIPDRFSGSKSGTSGSLVISGLQSEDEADYYCAAWDDSLSGNVFGTGTKVTVL
notes: IgG1-TM format; also called CD730047 antibody
B15: CD730046 (antibody, V domains shown)
VH: QVQLVQSGGGVVQPGRSLRLSCAASGFTFSSYGMHWVRQAPGKGLEWVAVISYDGSIKYYADSVKGRFTISRDNSKNSLFLQMNSLRDDDTATYYCARGHLLRIGDIFYYSLDVWGQGTLVTVSS
VL: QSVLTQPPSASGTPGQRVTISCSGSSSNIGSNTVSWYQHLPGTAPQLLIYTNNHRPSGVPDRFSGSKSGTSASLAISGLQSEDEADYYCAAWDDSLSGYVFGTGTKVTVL
notes: IgG1-TM format; also called CD730046 antibody
B16: CD730004 (antibody, V domains shown)
VH: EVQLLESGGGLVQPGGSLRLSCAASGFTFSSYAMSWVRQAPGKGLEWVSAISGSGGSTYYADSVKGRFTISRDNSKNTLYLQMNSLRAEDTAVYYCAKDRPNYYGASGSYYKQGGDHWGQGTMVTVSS
VL: NFMLTQPHSVSESPGQTVTISCTRSSGSIASKYVQWYQKRPGSSPTTVIYEDTQRPSGVPDRFSGSIDISSNSASLTISGLRTEDEADYYCQSYDSTNWVFGGGTKVTVL
notes: IgG1-TM format; also called CD730004 antibody

Columns and labels:
[1] = biological target: T1, Human CD73 ECD; assay: cell-based or functional assay
[2] = biological target: T2, Human CD73 on cells (MDA-MB-231, Jurkat …); assay: cell-based or functional assay
[3] = biological target: T1, Human CD73 ECD; assay: binding assay, format not stated
[4] = biological target: T3, Murine CD73 ECD; assay: binding assay, format not stated
[5] = biological target: T4, Cynomolgus CD73 ECD; assay: binding assay, format not stated
[6] = biological target: T1, Human CD73 ECD; assay: direct ELISA, normalized Fab supernatant, vs CD730010 GL9
[7] = biological target: T3, Murine CD73 ECD; assay: as above
[8] = biological target: T1, Human CD73 ECD; assay: SPR (Proteon)
[9] = biological target: T3, Murine CD73 ECD; assay: SPR (Proteon)
[10] = biological target: T4, Cynomolgus CD73 ECD; assay: SPR (Proteon)
[11] = biological target: T2, Human CD73 on cells (MDA-MB-231, Jurkat …); assay: flow cytometry on cells
[12] = biological target: T5, Murine CD73 on cells (4T1, Jurkat mCD73 …); assay: flow cytometry on cells
[13] = biological target: T6, Cynomolgus CD73 on MK-1 cells; assay: flow cytometry on cells

| Binder | Enzyme Inhibition, rCD73, 1/EC50 (nM) [1] | Enzyme Inhibition, MDA-MB-231, 1/EC50 (nM) [2] | Internalization, MDA-MB-231, 1/EC50 (nM) [2] | 1/EC50 [3] | 1/EC50 [4] | 1/EC50 [5] | ELISA signal, fold improvement over parental antibody [6] | ELISA signal, fold improvement over parental antibody [7] | further results |
| --- | --- | --- | --- | --- | --- | --- | --- | --- | --- |
| B1 | 0 nM⁻¹ | 0.11 nM⁻¹ | 0 nM⁻¹ | 0.0011 nM⁻¹ | 0.00058 nM⁻¹ | 0.0011 nM⁻¹ |  |  |  |
| B2 |  |  |  |  |  |  | 1.8 fold | 1.1 fold |  |
| B3 |  |  |  |  |  |  | 4.2 fold | 3 fold |  |
| B4 |  |  |  |  |  |  | 5.6 fold | 4.9 fold |  |
| B5 |  |  |  |  |  |  | 8.9 fold | 7.1 fold |  |
| B6 |  |  |  |  |  |  | 4.2 fold | 3.7 fold |  |
| B7 |  |  |  |  |  |  |  |  | Kd [8]: 0.029 nM; Kd [9]: 0.006 nM; Kd [10]: 0.012 nM; Kd [11]: 0.179 nM; Kd [12]: 0.095 nM; Kd [13]: 0.16 nM |
| B8 |  |  |  |  |  |  | 8.9 fold | 4.4 fold |  |
| B9 |  |  |  |  |  |  | 3.9 fold | 2.9 fold |  |
| B10 |  |  |  |  |  |  | 1.5 fold | 1.1 fold |  |
| B11 | 0.0011 nM⁻¹ | 0.0095 nM⁻¹ | 0.0011 nM⁻¹ | 0.00085 nM⁻¹ | 0.00057 nM⁻¹ | 0.0012 nM⁻¹ |  |  |  |
| B12 | 0 nM⁻¹ | 0.0032 nM⁻¹ | 0 nM⁻¹ | 0.0017 nM⁻¹ |  | 0.0014 nM⁻¹ |  |  |  |
| B13 | 0 nM⁻¹ | 0.00068 nM⁻¹ | 0 nM⁻¹ | 0.0021 nM⁻¹ | 0.0015 nM⁻¹ | 0.0027 nM⁻¹ |  |  |  |
| B14 | 0.001 nM⁻¹ | 0.027 nM⁻¹ | 0.001 nM⁻¹ | 0 nM⁻¹ |  |  |  |  |  |
| B15 | 0 nM⁻¹ | 0.081 nM⁻¹ | 0 nM⁻¹ | 0.0041 nM⁻¹ | 0.0052 nM⁻¹ | 0.01 nM⁻¹ |  |  |  |
| B16 |  | 0.06 nM⁻¹ | 0 nM⁻¹ |  | 0.00023 nM⁻¹ |  |  |  |  |
